Data as given in the Immune Epitope Database (IEDB).

Assays:
[1] = target: HLA-B*58:01; experiment: IEDB peptide-MHC binding, purified MHC/competitive/radioactivity; filed as Kd, often an IC50 or EC50 that approximates it; ≥ and ≤ were set here for values at or beyond the usual limits of such assays
[2] = target: HLA-B*48:01; experiment: IEDB peptide-MHC binding, purified MHC/direct/fluorescence; filed as Kd, often an IC50 or EC50 that approximates it; ≥ and ≤ were set here for values at or beyond the usual limits of such assays
[3] = target: HLA-A*01:01; experiment: as above
[4] = target: HLA-B*57:01; experiment: as above
[5] = target: HLA-B*44:02; experiment: as above
[6] = target: HLA-A*69:01; experiment: as above
[7] = target: HLA-B*40:01; experiment: as above
[8] = target: HLA-A*03:01; experiment: as above
[9] = target: HLA-A*29:02; experiment: as above
[10] = target: HLA-A*11:01; experiment: as above
[11] = target: HLA-B*27:05; experiment: as above
[12] = target: HLA-B*46:01; experiment: as above
[13] = target: HLA-B*18:01; experiment: as above
[14] = target: HLA-B*15:03; experiment: IEDB peptide-MHC binding, purified MHC/competitive/radioactivity; filed as Kd, often an IC50 or EC50 that approximates it; ≥ and ≤ were set here for values at or beyond the usual limits of such assays; settings: source organism: Vaccinia virus WR
[15] = target: HLA-A*11:01; experiment: IEDB peptide-MHC binding, purified MHC/competitive/fluorescence; ≥ and ≤ were set here for values at or beyond the usual limits of such assays
[16] = target: HLA-A*31:01; experiment: IEDB peptide-MHC binding, purified MHC/competitive/fluorescence; filed as Kd, often an IC50 or EC50 that approximates it; ≥ and ≤ were set here for values at or beyond the usual limits of such assays
[17] = target: HLA-A*03:01; experiment: as above; settings: source organism: Escherichia coli 101-1
[18] = target: HLA-B*15:01; experiment: IEDB peptide-MHC binding, purified MHC/competitive/radioactivity; filed as Kd, often an IC50 or EC50 that approximates it; ≥ and ≤ were set here for values at or beyond the usual limits of such assays
[19] = target: HLA-A*32:01; experiment: as above; settings: source organism: Dengue virus 2 Peru/IQT2913/1996
[20] = target: HLA-B*15:01; experiment: IEDB peptide-MHC binding, purified MHC/direct/fluorescence; filed as Kd, often an IC50 or EC50 that approximates it; ≥ and ≤ were set here for values at or beyond the usual limits of such assays; settings: source organism: Yellow fever virus
[21] = target: HLA-A*31:01; experiment: as above; settings: source organism: Yellow fever virus
[22] = target: HLA-B*58:01; experiment: as above; settings: source organism: Yellow fever virus
[23] = target: HLA-A*02:01; experiment: as above; settings: source organism: Yellow fever virus
[24] = target: HLA-B*07:02; experiment: as above; settings: source organism: Yellow fever virus
[25] = target: HLA-B*46:01; experiment: IEDB peptide-MHC binding, purified MHC/competitive/fluorescence; filed as Kd, often an IC50 or EC50 that approximates it; ≥ and ≤ were set here for values at or beyond the usual limits of such assays; settings: source organism: Clostridium botulinum B str. Eklund 17B (NRP)
[26] = target: HLA-B*15:01; experiment: as above; settings: source organism: Shigella boydii CDC 3083-94
[27] = target: HLA-A*02:01; experiment: as above; settings: source organism: Shigella boydii CDC 3083-94
[28] = target: HLA-B*08:01; experiment: IEDB peptide-MHC binding, purified MHC/competitive/radioactivity; filed as Kd, often an IC50 or EC50 that approximates it; ≥ and ≤ were set here for values at or beyond the usual limits of such assays; settings: source organism: Dengue virus 4 Philippines/H241/1956
[29] = target: HLA-A*24:02; experiment: as above; settings: source organism: Dengue virus 4 Philippines/H241/1956
[30] = source organism: West Nile virus
[31] = source organism: Vaccinia virus Copenhagen
[32] = source organism: Yellow fever virus
[33] = source organism: Escherichia coli O157:H7

**Q.** Which Kd ([1]; source organism: Dengue virus 3 Singapore/8120/1995) does the source give for TAAVLLLVTH here?
**A.** Its Kd is 304 nM.

**Q.** Which results are given for KIRNRIERL?
**A.** Kd [2, 30]: ≥ 20000 nM; Kd [3, 30]: ≥ 20000 nM; Kd [4, 30]: ≥ 20000 nM; Kd [5, 30]: ≥ 20000 nM; Kd [6, 30]: ≥ 20000 nM; Kd [7, 30]: ≥ 20000 nM; Kd [8, 30]: ≥ 20000 nM; Kd [9, 30]: ≥ 20000 nM; Kd [10, 30]: ≥ 20000 nM; Kd [11, 30]: ≥ 20000 nM; Kd [12, 30]: ≥ 20000 nM; Kd [13, 30]: ≥ 20000 nM

**Q.** AVVRFRTHF was tested. Which Kd [14] did it give?
**A.** Its Kd is 191 nM.

**Q.** For SAGESSILR, which IC50 [15, 31] is on record?
**A.** The IC50 was 1410 nM.

**Q.** What does the source list for HTFTAPIAK?
**A.** Kd ([16]; source organism: Escherichia coli 101-1): 19.1 nM; Kd [17]: 112 nM

**Q.** How did the Kd ([1]; source organism: Dengue virus 3 Martinique/1243/1999) turn out when ASAIVLEFF was run?
**A.** The Kd was 28.2 nM.

**Q.** What does the source list for RQMEGEGVF?
**A.** Kd ([18]; source organism: Dengue virus 2 Peru/IQT2913/1996): 4.86 nM; Kd [19]: 429 nM

**Q.** Which Kd [14] does the source give for AANCFGQHV here?
**A.** The Kd was 21.8 nM.

**Q.** With FKVLDGSPI as the sequence, how does the Kd [14] read?
**A.** Its Kd is 0.822 nM.

**Q.** For TINAVASRK, which Kd [16, 32] is on record?
**A.** The Kd was 801 nM.

**Q.** What about the Kd [10, 32] of the same sequence?
**A.** The Kd was 4.3 nM.

**Q.** For VNRWLFRHL, which Kd [2, 32] is on record?
**A.** Its Kd is ≥ 20000 nM.

**Q.** And the Kd [20]?
**A.** Its Kd is ≥ 20000 nM.

**Q.** And the Kd [3, 32]?
**A.** Its Kd is ≥ 20000 nM.

**Q.** What about the Kd [4, 32] of the same sequence?
**A.** Its Kd is ≥ 20000 nM.

**Q.** And the Kd [5, 32]?
**A.** The Kd was ≥ 20000 nM.

**Q.** And the Kd [6, 32]?
**A.** The Kd was ≥ 20000 nM.

**Q.** And the Kd [7, 32]?
**A.** The Kd was ≥ 20000 nM.

**Q.** What about the Kd [21] of the same sequence?
**A.** The Kd was ≥ 20000 nM.

**Q.** And the Kd [22]?
**A.** The Kd was ≥ 20000 nM.

**Q.** What about the Kd [8, 32] of the same sequence?
**A.** The Kd was ≥ 20000 nM.

**Q.** What about the Kd [23] of the same sequence?
**A.** Its Kd is ≥ 20000 nM.

**Q.** What about the Kd [24] of the same sequence?
**A.** The Kd was ≥ 20000 nM.

**Q.** What about the Kd [9, 32] of the same sequence?
**A.** The Kd was ≥ 20000 nM.

**Q.** What about the Kd [11, 32] of the same sequence?
**A.** Its Kd is ≥ 20000 nM.

**Q.** What about the Kd [12, 32] of the same sequence?
**A.** Its Kd is ≥ 20000 nM.

**Q.** And the Kd [13, 32]?
**A.** Its Kd is ≥ 20000 nM.

**Q.** For RKYGCGNMF, which Kd [14] is on record?
**A.** Its Kd is 1.25 nM.

**Q.** For GLYCYFTHL, which Kd ([18]; source organism: Vaccinia virus WR) is on record?
**A.** Its Kd is 6.87 nM.

**Q.** FFKDGMAEV was tested. Which Kd [25] did it give?
**A.** Its Kd is 398 nM.

**Q.** ENKKNLSEQ was tested. Which IC50 ([15]; source organism: Sudan ebolavirus) did it give?
**A.** Its IC50 is ≥ 75400 nM.

**Q.** Which Kd [18, 31] does the source give for IISSSTLYF here?
**A.** The Kd was 1.06 nM.

**Q.** FTFEWNGRI was tested. Which Kd [26] did it give?
**A.** Its Kd is ≥ 20000 nM.

**Q.** And the Kd [27]?
**A.** The Kd was 14.5 nM.

**Q.** With MKYCSYQSF as the sequence, how does the Kd [14] read?
**A.** Its Kd is 1.55 nM.

**Q.** Which Kd ([18]; source organism: Dengue virus 4 Philippines/H241/1956) does the source give for VMKRYSAPF here?
**A.** Its Kd is 10.2 nM.

**Q.** And the Kd [28]?
**A.** The Kd was 8.98 nM.

**Q.** And the Kd [29]?
**A.** Its Kd is 994 nM.

**Q.** Which results are given for RVIYPANQK?
**A.** Kd ([16]; source organism: Escherichia coli O157:H7 str. Sakai): 72.2 nM; Kd [8, 33]: 35 nM; Kd [10, 33]: 6.9 nM

**Q.** For LMVSGPNVV, which Kd [14] is on record?
**A.** The Kd was 3.8 nM.
